US20190142963A1 (INDIANA UNIVERSITY RESEARCH AND TECHNOLOGY, published 2019)
Read-outs that look alike come from different tables or passages of the source. Non-standard residues stand in square brackets, D forms with d. No end group written: not given here.

T1: human Klotho β (human, UniProt Q86Z14 1-1044)
T1 sequence (looked up): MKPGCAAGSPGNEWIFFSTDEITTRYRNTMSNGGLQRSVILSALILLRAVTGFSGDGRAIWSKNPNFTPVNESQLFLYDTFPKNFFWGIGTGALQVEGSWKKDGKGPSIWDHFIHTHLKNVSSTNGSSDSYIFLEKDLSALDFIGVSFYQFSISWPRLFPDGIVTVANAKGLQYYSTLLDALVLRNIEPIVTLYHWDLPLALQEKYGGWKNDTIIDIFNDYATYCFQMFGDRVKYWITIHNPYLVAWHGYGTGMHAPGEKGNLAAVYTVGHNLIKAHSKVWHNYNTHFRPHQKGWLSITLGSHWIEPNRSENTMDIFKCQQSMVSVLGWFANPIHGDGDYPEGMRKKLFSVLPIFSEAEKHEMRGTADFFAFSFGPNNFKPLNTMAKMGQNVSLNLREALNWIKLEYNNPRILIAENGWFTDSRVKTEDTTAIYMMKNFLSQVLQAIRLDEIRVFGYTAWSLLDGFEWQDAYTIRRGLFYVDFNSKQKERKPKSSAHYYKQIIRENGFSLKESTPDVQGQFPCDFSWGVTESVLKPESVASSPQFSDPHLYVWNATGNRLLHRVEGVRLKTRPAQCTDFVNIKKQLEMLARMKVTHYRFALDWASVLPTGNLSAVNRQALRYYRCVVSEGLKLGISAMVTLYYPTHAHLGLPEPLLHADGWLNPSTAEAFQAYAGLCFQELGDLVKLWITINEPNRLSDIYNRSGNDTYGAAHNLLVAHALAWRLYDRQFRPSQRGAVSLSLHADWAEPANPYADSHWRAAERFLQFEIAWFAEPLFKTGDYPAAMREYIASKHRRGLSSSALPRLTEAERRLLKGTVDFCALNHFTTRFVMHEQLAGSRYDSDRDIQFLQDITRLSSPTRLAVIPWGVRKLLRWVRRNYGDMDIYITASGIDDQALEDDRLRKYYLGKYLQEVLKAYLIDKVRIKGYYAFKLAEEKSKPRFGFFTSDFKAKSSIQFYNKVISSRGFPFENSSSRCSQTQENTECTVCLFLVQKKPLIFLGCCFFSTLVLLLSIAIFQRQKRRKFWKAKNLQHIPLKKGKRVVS


Key:
Test in all cases: cell-based or functional assay
mouse Klotho β (mouse) = mouse Klotho β (mouse) (UniProt Q99N32)
human Klotho β [1] = target: T1, human Klotho β
human Klotho β [2] = target: T1, human Klotho β; remark: listed apart in the source
human Klotho β [3] = target: T1, human Klotho β; remark: listed apart in the source
human Klotho β [4] = target: T1, human Klotho β; remark: listed apart in the source
human Klotho β [5] = target: T1, human Klotho β; remark: listed apart in the source
human Klotho β [6] = target: T1, human Klotho β; remark: listed apart in the source
human Klotho β [7] = target: T1, human Klotho β; remark: listed apart in the source

Chain of mouse Klotho β (mouse) (Q99N32 whole entry): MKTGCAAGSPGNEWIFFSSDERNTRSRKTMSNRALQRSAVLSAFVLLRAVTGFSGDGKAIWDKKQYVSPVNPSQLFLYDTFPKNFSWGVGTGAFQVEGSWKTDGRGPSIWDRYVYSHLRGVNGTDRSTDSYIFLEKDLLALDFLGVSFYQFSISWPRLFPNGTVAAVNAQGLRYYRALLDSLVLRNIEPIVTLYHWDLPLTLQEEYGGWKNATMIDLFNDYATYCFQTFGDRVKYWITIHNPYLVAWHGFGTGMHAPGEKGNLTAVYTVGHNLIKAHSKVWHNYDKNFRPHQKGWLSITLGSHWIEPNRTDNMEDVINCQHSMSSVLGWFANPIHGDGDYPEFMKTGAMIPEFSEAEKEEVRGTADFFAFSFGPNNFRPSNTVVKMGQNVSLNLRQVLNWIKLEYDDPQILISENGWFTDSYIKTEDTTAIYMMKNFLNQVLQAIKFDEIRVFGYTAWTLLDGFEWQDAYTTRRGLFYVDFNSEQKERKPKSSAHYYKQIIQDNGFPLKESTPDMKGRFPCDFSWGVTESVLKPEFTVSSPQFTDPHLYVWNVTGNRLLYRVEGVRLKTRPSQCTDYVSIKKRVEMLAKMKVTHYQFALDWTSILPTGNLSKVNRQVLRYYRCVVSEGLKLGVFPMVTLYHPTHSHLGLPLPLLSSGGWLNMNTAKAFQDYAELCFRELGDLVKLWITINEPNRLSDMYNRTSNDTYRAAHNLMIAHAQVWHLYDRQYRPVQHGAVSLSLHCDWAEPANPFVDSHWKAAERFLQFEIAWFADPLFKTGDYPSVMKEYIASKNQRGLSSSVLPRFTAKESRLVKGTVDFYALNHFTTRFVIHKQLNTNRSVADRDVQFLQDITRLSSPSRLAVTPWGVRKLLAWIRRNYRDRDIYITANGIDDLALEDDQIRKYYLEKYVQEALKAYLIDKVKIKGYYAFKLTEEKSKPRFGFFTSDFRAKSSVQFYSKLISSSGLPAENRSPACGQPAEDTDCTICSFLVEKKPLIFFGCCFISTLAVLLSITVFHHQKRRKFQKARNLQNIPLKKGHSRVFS

% max activity of antagonism of FGF21 (pErk1/2, 293 HEK hKLB cells) (human Klotho β [3])	IC-50 of antagonism of FGF21 (pErk1/2, 293 HEK hKLB cells) (human Klotho β [3])	IC-50 of antagonism of FGF21 (pErk1/2, 293 HEK hKLB cells) (human Klotho β [6])	Molecule	further results
			FGF19 (from UniProt O95750 25-216) (ligand)	potency (agonism) in cells that overexpressed mouse KLB (FIG. 11B) (mouse Klotho β (mouse)): 25.7; % maximal activity, Erk1/2 phosphorylation in 293T HEK hKLB cells (FIG. 9B) (human Klotho β [1]): 27%; EC-50 of Erk1/2 phosphorylation in 293T HEK hKLB cells (FIG. 9B) (human Klotho β [1]): 148 nM; potency (agonism) in cells that overexpressed human KLB (FIG. 11A) (human Klotho β [1]): 65.8
100%	102 nM		PPDVGSSDPLSMVGPSQGASPSYAS [FGF21 25mer A19]	IC-50 of antagonism of FGF21 (pErk1/2, 293 HEK hKLB cells) (human Klotho β [2]): 0.1 µM
			PPDVGSSDPLSMVGPSQG[dR]SPSYAS-NH2 [FGF21 D19]	% Activity vs C25 (human Klotho β [4]): 271%; IC50 of antagonism of FGF21 (assay of Example 1) (human Klotho β [4]): 152 nM; IC50 of antagonism of FGF21 (assay of Example 1) (human Klotho β [5]): 52.5 nM
100%	168 nM		PPDVGSSDPLSMVGPSQGRSPSYAS-NH2 [FGF21 157-181]	IC-50 of antagonism of FGF21 (pErk1/2, 293 HEK hKLB cells) (human Klotho β [2]): 0.16 µM; % Activity vs C25 (human Klotho β [4]): 100%; IC50 of antagonism of FGF21 (assay of Example 1) (human Klotho β [4]): 283 nM; IC50 of antagonism of FGF21 (assay of Example 1) (human Klotho β [5]): 182 nM
			LETDSMDPF[dS]LVTGLEAVRSPSFEA-NH2 [FGF19 S10A26]	IC50 of antagonism of FGF21 (assay of Example 1) (human Klotho β [5]): 10.9 nM
87.9%	2.11 µM	4.6 µM	PPDVGSSDPLSMAGPSQGRSPSYAS [FGF21 25mer A13]	
89.2%	2.65 µM	2.44 µM	PPDVGASDPLSMVGPSQGRSPSYAS [FGF21 25mer A6]	
98.5%	137 nM		PADVGSSDPLSMVGPSQGRSPSYAS [FGF21 25mer A2]	IC-50 of antagonism of FGF21 (pErk1/2, 293 HEK hKLB cells) (human Klotho β [2]): 0.62 µM
			FGF21 (ligand) HPIPDSSPLLQFGGQVRQRYLYTDDAQQTEAHLEIREDGTVGGAADQSPESLLQLKALKPGVIQILGVKTSRFLCQRPDGALYGSLHFDPEACSFRELLLEDGYNVYQSEAHGLPLHLPGNKSPHRDPAPRGPARFLPLPGLPPALPEPPGILAPQPPDVGSSDPLSMVGPSQGRSPSYAS	% maximal activity, Erk1/2 phosphorylation in 293T HEK hKLB cells (FIG. 9A) (human Klotho β [7]): 100%
			FGF21 P171A (ligand) HPIPDSSPLLQFGGQVRQRYLYTDDAQQTEAHLEIREDGTVGGAADQSPESLLQLKALKPGVIQILGVKTSRFLCQRPDGALYGSLHFDPEACSFRELLLEDGYNVYQSEAHGLPLHLPGNKSPHRDPAPRGPARFLPLPGLPPALPEPPGILAPQPPDVGSSDPLSMVGASQGRSPSYAS	% maximal activity, Erk1/2 phosphorylation in 293T HEK hKLB cells (FIG. 9A) (human Klotho β [7]): 100%
			FGF21 D164A (ligand) HPIPDSSPLLQFGGQVRQRYLYTDDAQQTEAHLEIREDGTVGGAADQSPESLLQLKALKPGVIQILGVKTSRFLCQRPDGALYGSLHFDPEACSFRELLLEDGYNVYQSEAHGLPLHLPGNKSPHRDPAPRGPARFLPLPGLPPALPEPPGILAPQPPDVGSSAPLSMVGPSQGRSPSYAS	% maximal activity, Erk1/2 phosphorylation in 293T HEK hKLB cells (FIG. 9A) (human Klotho β [7]): 6%
			FGF21-19 K194A (ligand) HPIPDSSPLLQFGGQVRQRYLYTDDAQQTEAHLEIREDGTVGGAADQSPESLLQLKALKPGVIQILGVKTSRFLCQRPDGALYGSLHFDPEACSFRELLLEDGYNVYQSEAHGLPLHLPGNKSPHRDPAPRGPARFLPLPGLPPALPEPPGILAPQPLETDSMDPFGLVTGLEAVRSPSFEA	potency as agonist relative to native FGF21 (human Klotho β [7]): ~5 fold
78.5%	752 nM	0.67 µM	PPDVGSSDPLSMVGPSQGRSPAYAS [FGF21 25mer A22]	
63.6%	5.93 µM	2.69 µM	PPDAGSSDPLSMVGPSQGRSPSYAS [FGF21 25mer A4]	
73.5%	3.23 µM	2.21 µM	PPDVGSSDPLSMVGPSQGRAPSYAS [FGF21 25mer A20]	
87.8%	2.28 µM	1.5 µM	PPAVGSSDPLSMVGPSQGRSPSYAS [FGF21 25mer A3]	
103%	139 nM		PPDVGSSDPLSMVGPSQARSPSYAS [FGF21 25mer A18]	IC-50 of antagonism of FGF21 (pErk1/2, 293 HEK hKLB cells) (human Klotho β [2]): 0.15 µM
76%	3.32 µM	2.75 µM	PPDVGSSDPASMVGPSQGRSPSYAS [FGF21 25mer A10]	
99%	45 nM		PPDVGSSDPLSMVGPSQGRSPSYAA [FGF21 25mer A25]	IC-50 of antagonism of FGF21 (pErk1/2, 293 HEK hKLB cells) (human Klotho β [2]): 0.06 µM
70.5%	2.24 µM	2.57 µM	PPDVGSSDPLSMVGPSQGRSASYAS [FGF21 25mer A21]	
			PPDVGSSDPL[dS]MVGPSQG[dR]SPSYAS-NH2 [FGF21 D11D19]	IC50 of antagonism of FGF21 (assay of Example 1) (human Klotho β [5]): 14.1 nM
			LETDSMDPF[dS]LVTGLEAVRSPSFES-NH2 [FGF19 S10]	IC50 of antagonism of FGF21 (assay of Example 1) (human Klotho β [5]): 194 nM
73.6%	3.98 µM	4.16 µM	PPDVGSSDPLSMVGPSQGRSPSAAS [FGF21 25mer A23]	
100%	33 nM		APDVGSSDPLSMVGPSQGRSPSYAS [FGF21 25mer A1]	IC-50 of antagonism of FGF21 (pErk1/2, 293 HEK hKLB cells) (human Klotho β [2]): 0.39 µM
			LETDSMDPFGLVTGLEAVRSPSFEA [FGF19 A26]	IC50 of antagonism of FGF21 (assay of Example 1) (human Klotho β [5]): 17.9 nM
			PPDVGSSDPL[dS]MVGPSQGRSPSYAS-NH2 [FGF21 D11]	% Activity vs C25 (human Klotho β [4]): 596%; IC50 of antagonism of FGF21 (assay of Example 1) (human Klotho β [4]): 57.3 nM; IC50 of antagonism of FGF21 (assay of Example 1) (human Klotho β [5]): 19.9 nM
